For the data set, the target named is FGFR1 on NIH3T3 cells (mouse (NIH3T3 fibroblasts)) (UniProt P16092). Briefly: flow cytometry. Conditions: SPR: Biacore T200, CM5 amine coupling, HBS running buffer (pH, salt, temperature not stated), flow cytometry: PBS, 1% BSA, 0.1% sodium azide, room temperature. For orientation: In flow cytometry, cells or beads pass a laser one at a time.

Usually Kd stands for a measure of binding affinity in units of concentration.

FGFR1 on NIH3T3 cells (mouse (NIH3T3 fibroblasts)), sequence (P16092 22-822): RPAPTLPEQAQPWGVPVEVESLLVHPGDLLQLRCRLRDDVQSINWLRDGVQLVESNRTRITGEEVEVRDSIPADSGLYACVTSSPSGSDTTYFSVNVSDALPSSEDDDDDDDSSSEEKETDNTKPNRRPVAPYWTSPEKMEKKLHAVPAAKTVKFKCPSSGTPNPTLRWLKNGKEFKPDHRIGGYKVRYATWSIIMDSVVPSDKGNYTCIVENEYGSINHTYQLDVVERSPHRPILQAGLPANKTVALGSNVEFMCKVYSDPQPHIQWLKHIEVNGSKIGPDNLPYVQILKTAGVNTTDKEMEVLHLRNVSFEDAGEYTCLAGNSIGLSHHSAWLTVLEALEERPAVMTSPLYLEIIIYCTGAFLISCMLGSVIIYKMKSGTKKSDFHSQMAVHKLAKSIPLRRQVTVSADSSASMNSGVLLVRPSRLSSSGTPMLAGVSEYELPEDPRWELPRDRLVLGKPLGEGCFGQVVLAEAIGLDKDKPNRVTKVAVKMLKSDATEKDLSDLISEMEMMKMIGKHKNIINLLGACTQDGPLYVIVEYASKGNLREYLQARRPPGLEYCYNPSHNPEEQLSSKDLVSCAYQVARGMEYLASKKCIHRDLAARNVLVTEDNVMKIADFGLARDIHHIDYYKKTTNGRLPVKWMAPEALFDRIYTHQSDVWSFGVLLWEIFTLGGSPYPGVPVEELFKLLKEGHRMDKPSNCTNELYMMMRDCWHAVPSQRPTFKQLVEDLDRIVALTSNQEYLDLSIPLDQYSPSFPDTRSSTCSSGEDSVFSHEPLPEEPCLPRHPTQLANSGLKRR

Turning to “GCCGCGTCTTTATGGCTGGGGATGGTGTGGGTTGCGGC [FAM-FGFR-binder]”, the dissociation constant Kd turned out to be 0.039 µM.
